Where two headings read alike, the source gives them in different places. Positions of bridges follow the written chain, without caps; N, C: chain ends. Non-standard residues stand in square brackets, D forms with d. No end group written: not given here. Ida bridge carrying fatty‑acid side chain of Intermediate A‑1 = not defined here; Aib = CC(C)(N)C(=O)O
T1: GIPR (UniProt P48546 22-466, limits assumed)
T1 sequence (looked up): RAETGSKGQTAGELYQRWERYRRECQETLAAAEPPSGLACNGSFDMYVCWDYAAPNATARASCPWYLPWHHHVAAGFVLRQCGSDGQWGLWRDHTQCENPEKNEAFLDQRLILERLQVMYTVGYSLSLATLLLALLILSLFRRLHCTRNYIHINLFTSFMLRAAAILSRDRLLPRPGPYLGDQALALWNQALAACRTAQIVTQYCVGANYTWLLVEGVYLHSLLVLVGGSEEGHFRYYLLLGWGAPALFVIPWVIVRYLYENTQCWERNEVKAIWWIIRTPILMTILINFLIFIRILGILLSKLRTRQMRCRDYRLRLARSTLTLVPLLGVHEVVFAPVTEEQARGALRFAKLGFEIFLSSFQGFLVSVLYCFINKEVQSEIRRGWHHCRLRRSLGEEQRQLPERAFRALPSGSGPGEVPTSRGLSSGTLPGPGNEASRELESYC


What was measured:
[1] = design: species or system SD rats; details: rat, in vivo, sc, 0.048 mg/kg
Method: To test the pharmacokinetic profiles of the compounds in SD rats. The pharmacokinetic characteristics in rodent animals following subcutaneous injection of the compounds were tested using standard protocols. In the experiment, the candidate compounds were formulated into clear solution, which was administered to the rats by single subcutaneous injection (SC, 0.048 mpk). The vehicle for injection was citrate buffer solution (20 mM, pH=7). The whole blood was collected and processed to get the plasma. The drug concentration was analyzed by LC-MS/MS, and the pharmacokinetic parameters were calculated using Phoenix WinNonlin software.

[2] = design: species or system C57BL/6 mice; details: mouse, in vivo, sc, 0.048 mg/kg
Method: To test the pharmacokinetic profiles of the compounds in C57BL/6 mice. The pharmacokinetic characteristics in rodent animals following subcutaneous injection of the compounds were tested using standard protocols. In the experiment, the candidate compounds were formulated into clear solution, which was administered by subcutaneous injection (SC, 0.048 mpk). The vehicle for subcutaneous injection was citrate buffer solution (20 mM, pH=7). The whole blood was collected and processed to get the plasma. The drug concentration was analyzed by LC-MS/MS, and the pharmacokinetic parameters were calculated using Phoenix WinNonlin software.

[3] = design: species or system Cynomolgus macaques; details: cynomolgus monkey, in vivo, sc, 0.02 mg/kg
Method: To test the pharmacokinetic profiles of the compounds in Cynomolgus macaques. The pharmacokinetic characteristics in mammals following intravenous injection and subcutaneous injection of the compounds were tested using standard protocols. In the experiment, the candidate compounds were formulated into clear solution, which was administered to Cynomolgus macaques by single subcutaneous injection (SC, 0.02 mpk). The vehicle for subcutaneous injection was citrate buffer solution (20 mM, pH=7). The whole blood was collected and processed to get the plasma. The drug concentration was analyzed by LC-MS/MS, and the pharmacokinetic parameters were calculated using Phoenix WinNonlin software.

[4] = system: human plasma albumin; type: in vitro ADME
Method: (§1) To study the binding of the test compounds to human/mouse plasma albumin. • 1. Blank matrix preparation: On the day of the experiment, the plasma was thawed in cold water and centrifuged at 3220 rpm for 5 min to remove all the blood clots. The pH of the resulting plasma was measured and adjusted to 7.4±0.1 with 1% phosphoric acid or 1 N sodium hydroxide as desired. • 2. Dilution of the test compounds: the test compounds were dissolved in dimethyl sulfoxide (DMSO) to prepare stock solutions of 10 mM and 2 mM, respectively. 2 μL of the stock solution (2 mM) was diluted with 98 μL of DMSO to obtain a working solution of 40 μM. 10 μL of the stock solution was diluted with 240 μL of DMSO to obtain a working solution of control compounds of 400 μM. A working solution of the compounds (5 μL) was mixed evenly with a blank matrix (995 μL) at a ratio of 1:200 to prepare a loading matrix. • 3. Analytical procedure • 3.1 Equal amounts of 30 μL of the loading matrix (n=2) were transferred into a sample collection plate to prepare Time 0 (T0) samples for residue determination. The samples were immediately matched with corresponding blank buffer to a final volume of 60 μL, with a volume ratio of plasma (the loading matrix) to buffer being 1:1 in each well. Then, into the TO samples of the test compounds were respectively added 60 μL of 4% H3PO4 in H2O and 480 μL of stop solution containing internal standard. They were then stored at 2° C. to 8° C. together with other samples for further treatment. • 3.2 The remaining plasma samples were pre-incubated in a carbon dioxide incubator at 37±1° C. for 30 min. Protein-free samples (F samples) were prepared. Matrix-loaded samples (230 μL) were all transferred into polycarbonate tubes (n=2) and ultracentrifuged at 37° C. and 155,000×g (35000 rpm) for 4 h. • 3.3 To prepare T samples (test samples), an additional matrix-containing sample was transferred into a separate 96-well plate (sample incubation plate) and incubated at 37° C. for 4 h. • 3.4 At the end of centrifugation, 30 μL of protein-free samples (F samples) and 30 μL of T samples were taken from the second layer (beneath the upper layer) of the supernatant and transferred into a new sample collection plate. Each sample was mixed with corresponding blank buffer or matrix to a final volume of 60 μL, and the blank matrix:buffer volume ratio is 1:1. Into all the samples were added 60 μL of 4% H3PO4 solution in water and 480 μL of stop solution containing internal standard. The mixture was centrifuged at 4000 rpm for 20 min. 100 μL of supernatant for each sample was taken for LC-MS/MS analysis.

[5] = system: mouse plasma albumin; type: in vitro ADME
Method: as §1

[6] = biological target: GLP-1R (UniProt P43220 24-463, limits assumed); assay: cell-based or functional assay
[7] = biological target: T1, GIPR; assay: cell-based or functional assay

Row | Molecule | PPB % unbound (H) [4] | PPB % unbound (M) [5] | EC50, cAMP assay, (-) 1% HSA [6] [nM] | EC50, cAMP assay, (-) 1% HSA [7] [nM] | EC50, cAMP assay, (+) 1% HSA [6] [nM] | Ratio (EC50 (+) 1% HSA over (-) 1% HSA) [6] | EC50, cAMP assay, (+) 1% HSA [7] [nM] | Ratio (EC50 (+) 1% HSA over (-) 1% HSA) [7] | also measured
1 | CC[C@H](C)[C@H](NC(=O)[C@H](CC(C)C)NC(=O)[C@H](Cc1c[nH]c2ccccc12)NC(=O)[C@H](CCC(=O)O)NC(=O)[C@@H](NC(=O)[C@H](Cc1ccccc1)NC(=O)[C@H](CCC(=O)O)NC(=O)[C@@H]1CCCCNC(=O)CN(C(=O)COCCOCCNC(=O)COCCOCCNC(=O)CC[C@H](NC(=O)CCCCCCCCCCCCCCCCCCC(=O)O)C(=O)O)CC(=O)NCCCC[C@H](NC(=O)[C@H](CCCCN)NC(=O)[C@H](CC(=O)O)NC(=O)[C@H](CC(C)C)NC(=O)C(C)(C)NC(=O)[C@@H](NC(=O)[C@H](CO)NC(=O)[C@H](Cc2ccc(O)cc2)NC(=O)[C@H](CC(=O)O)NC(=O)[C@H](CO)NC(=O)[C@@H](NC(=O)[C@H](Cc2ccccc2)NC(=O)[C@@H](NC(=O)CNC(=O)[C@H](CCC(=O)O)NC(=O)C(C)(C)NC(=O)[C@@H](N)Cc2ccc(O)cc2)[C@@H](C)O)[C@@H](C)O)[C@@H](C)CC)C(=O)N[C@@H](C)C(=O)N[C@@H](CCC(N)=O)C(=O)N1)C(C)C)C(=O)N[C@@H](C)C(=O)NCC(=O)NCC(=O)N1CCC[C@H]1C(=O)N[C@@H](CO)C(=O)N[C@@H](CO)C(=O)NCC(=O)N[C@@H](C)C(=O)N1CCC[C@H]1C(=O)N1CCC[C@H]1C(=O)N1CCC[C@H]1C(=O)N[C@@H](CO)C(N)=O [WX-009] | NA/NA | NA/NA | – | – | – | – | – | – | AUC(0-t) [1]: 1.09 µM·h; half-life [1]: 21 h; AUC(0-t) [2]: 1.99 µM·h; half-life [2]: 17 h; AUC(0-t) [3]: 4.74 µM·h; half-life [3]: 105 h
2 | CC[C@H](C)[C@H](NC(=O)[C@H](CC(C)C)NC(=O)[C@H](Cc1c[nH]c2ccccc12)NC(=O)[C@H](CCC(=O)O)NC(=O)[C@@H](NC(=O)[C@H](Cc1ccccc1)NC(=O)[C@H](C)NC(=O)[C@@H]1CCCCNC(=O)CN(C(=O)COCCOCCNC(=O)COCCOCCNC(=O)CC[C@H](NC(=O)CCCCCCCCCCCCCCCCCCC(=O)O)C(=O)O)CC(=O)NCCCC[C@H](NC(=O)[C@H](CCCCN)NC(=O)[C@H](CC(=O)O)NC(=O)[C@H](CC(C)C)NC(=O)C(C)(C)NC(=O)[C@@H](NC(=O)[C@H](CO)NC(=O)[C@H](Cc2ccc(O)cc2)NC(=O)[C@H](CC(=O)O)NC(=O)[C@H](CO)NC(=O)[C@@H](NC(=O)[C@H](Cc2ccccc2)NC(=O)[C@@H](NC(=O)CNC(=O)[C@H](CCC(=O)O)NC(=O)C(C)(C)NC(=O)[C@@H](N)Cc2ccc(O)cc2)[C@@H](C)O)[C@@H](C)O)[C@@H](C)CC)C(=O)N[C@@H](C)C(=O)N[C@@H](CCC(N)=O)C(=O)N1)C(C)C)C(=O)N[C@@H](C)C(=O)NCC(=O)NCC(=O)N1CCC[C@H]1C(=O)N[C@@H](CO)C(=O)N[C@@H](CO)C(=O)NCC(=O)N[C@@H](C)C(=O)N1CCC[C@H]1C(=O)N1CCC[C@H]1C(=O)N1CCC[C@H]1C(=O)N[C@@H](CO)C(N)=O [WX-005] | NA/NA | NA/NA | – | – | – | – | – | – | –
3 | Y[Aib]EGTFTSDYSI[Aib]LDKKAQKAFVEWLIAGGPSSGAPPPS-NH2 (bridge 17-20; not fully specified (bridges); also: Glu bridge amino group carries fatty-acid side chain of Intermediate A-1) [polypeptide WX-010] | – | – | 0.017 | 0.14 | – | – | – | – | –
4 | Y[Aib]EGTFTSDYSI[Aib]LDKIAQKAFVKWLIAGGPSSGAPPPS-NH2 (linker 20-24 via Ida bridge carrying fatty‑acid side chain of Intermediate A‑1; reading uncertain) [polypeptide compound WX-001] | – | – | 0.0596 | 0.324 | 16.6 | 279 | 16 | 49.3 | –
5 | Y[Aib]EGTFTSDYSI[Aib]LDKKAQKAFVEWLIAGGPSSGAPPPS-NH2 (linker 17-20 via Ida; also: Ida bridge carries fatty-acid side chain of Intermediate A-1) [polypeptide WX-005] | – | – | 0.036 | 0.16 | 7.63 | 212 | 19.3 | 121 | –
6 | Y[Aib]EGTFTSDYSI[Aib]LDKKAQKEFVEWLIAGGPSSGAPPPS-NH2 (linker 17-20 via Ida bridge carrying fatty‑acid side chain of Intermediate A‑1; reading uncertain) [polypeptide WX-009] | – | – | 0.014 | 0.074 | – | – | – | – | –

Source: patent US20260055142A1, “PHARMACEUTICAL USE OF POLYPEPTIDE IN PREPARATION OF DRUGS FOR TREATING AND/OR PREVENTING DIABETES AND OBESITY AND RELATED DISEASES THEREOF” (GUANGDONG RAYNOVENT BIOTECH CO., LTD., priority 2022, published 2026)
